Measured values as given in paper PMC4230587.

Biological target: RSA-2 (C. elegans (endogenous in embryos)) (UniProt G5EFV3)
Test: co-IP

UniProt G5EFV3, sequence (G5EFV3 whole entry): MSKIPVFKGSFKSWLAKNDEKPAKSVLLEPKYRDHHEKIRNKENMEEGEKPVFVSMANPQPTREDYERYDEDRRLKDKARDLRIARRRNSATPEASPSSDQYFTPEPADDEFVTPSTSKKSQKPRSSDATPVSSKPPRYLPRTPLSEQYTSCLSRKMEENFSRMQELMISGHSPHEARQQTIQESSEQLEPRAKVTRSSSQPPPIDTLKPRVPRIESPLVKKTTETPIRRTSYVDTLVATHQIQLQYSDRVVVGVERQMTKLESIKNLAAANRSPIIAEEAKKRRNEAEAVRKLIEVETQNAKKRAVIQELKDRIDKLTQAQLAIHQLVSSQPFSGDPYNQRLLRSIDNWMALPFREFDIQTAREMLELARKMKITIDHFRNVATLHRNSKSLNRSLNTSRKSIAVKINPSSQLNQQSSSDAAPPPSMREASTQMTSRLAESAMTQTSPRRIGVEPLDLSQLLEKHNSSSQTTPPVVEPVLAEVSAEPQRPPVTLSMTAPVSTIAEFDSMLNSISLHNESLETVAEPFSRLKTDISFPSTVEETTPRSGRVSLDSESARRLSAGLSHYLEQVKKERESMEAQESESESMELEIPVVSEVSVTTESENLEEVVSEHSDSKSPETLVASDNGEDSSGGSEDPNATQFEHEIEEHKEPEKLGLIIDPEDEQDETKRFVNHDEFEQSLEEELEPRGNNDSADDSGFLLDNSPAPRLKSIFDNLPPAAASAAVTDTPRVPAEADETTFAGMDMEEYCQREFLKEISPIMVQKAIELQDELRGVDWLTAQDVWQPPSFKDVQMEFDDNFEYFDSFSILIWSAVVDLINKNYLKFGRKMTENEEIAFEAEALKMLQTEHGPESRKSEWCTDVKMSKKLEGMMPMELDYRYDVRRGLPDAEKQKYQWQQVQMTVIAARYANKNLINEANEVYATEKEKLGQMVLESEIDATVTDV

percent of total protein co-immunoprecipitated: 20%
Substance: SPD-5 (from UniProt P91349 1-1198) (natural protein)
